Experimental data: US20070292490A1

Columns and labels:
[1] = biological target: E. coli produced recombinant human tissue factor rhTF243, purified and lipidated (human) (UniProt P13726); experiment: cell-based or functional assay
[2] = biological target: lettuce-produced recombinant human tissue factor, full length (263 aa), purified and lipidated (human) (UniProt P13726); experiment: cell-based or functional assay

B1: Sunol-cH36 (antibody, from another filing, V domains shown)
VH: EIQLQQSGPELVKPGASVQVSCKTSGYSFTDYNVYWVRQSHGKSLEWIGYIDPYNGITIYDQNFKGKATLTVDKSSTTAFMHLNSLTSDDSAVYFCARDVTTALDFWGQGTTLTVSS
VL: DIQMTQSPASQSASLGESVTITCLASQTIDTWLAWYQQKPGKSPQLLIYAATNLADGVPSRFSGSGSGTKFSFKISSLQAEDFVNYYCQQVYSSPFTFGAGTKLELK
clot time in prothrombin time (PT) assay, human plasma, 10 nM lipidated rhTF, at antibody concentration of 500 nM [1]: 48 s
clot time in prothrombin time (PT) assay, human plasma, 10 nM lipidated rhTF, without antibody (0 nM) [1]: 25 s
clot time in prothrombin time (PT) assay, human plasma, 10 nM lipidated rhTF, at antibody concentration of 500 nM [2]: 42 s
clot time in prothrombin time (PT) assay, human plasma, 10 nM lipidated rhTF, without antibody (0 nM) [2]: 25 s
